Reference: article PMC6131205, “Controlling the regioselectivity and stereospecificity of FAD-dependent polyamine oxidases with the use of amine-attached guide molecules as conformational modulators” (Bioscience Reports, 2018)
Several values for one entry are separate records, joined by “and”; a condition that tells them apart may be missing. Identical values can stand only once.

Tests used:
Assay in all cases: purified protein, by the assay type;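 also: recombinant polyamine oxidases incubated with substrate, product amines (putrescine, 1,3-diaminopropane or butane-1,3-diamine) quantified by HPLC after post-column o-phthalaldehyde derivatization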
[1] = substrate: NCCCCNCCCN; settings: other: substrate alone, no aldehyde, pH 9.0, 25°C
Description: (§1) HPLC with post-column o-phthalaldehyde-derivatization was used to determine the concentrations of the reaction products Put and 1,3-diaminopropane (DAP) or butane-1,3-diamine respectively as described in [30]. Fms1 activity was determined essentially as described for human recombinant APAO, but reactions were carried out in 100 mM Glycine-NaOH buffer at pH 9.0 in a water bath at +25°C [29, 30].
(§2) The reactions were carried out in 1 triplicate at pH 9.0 in 100 mM Glycine-NaOH at +25°C.
(§3) values for N -Ac-MeSpd enantiomers were determined by using substrate concentrations of 25, 50,
(§4) for Rac-MeSpd 30 min, (R)-MeSpd 20 min and (S)-MeSpd 40 minutes.
(§5) The reactions were carried out in triplicate at pH 9.0 in 100 mM Glycine-NaOH at +25°C.
(§6) values for MeSpd enantiomers were determined by using substrate concentrations of 100, 300, 600,
(§7) 1000, 2000 and 4000 M. Recombinant Fms1 was 3.8 g/reaction and the incubation time 60
(§8) incubated for 30 min (half of the reaction time of an ordinary sample). E1 cleavage was monitored
(§9) by HPLC by measuring Put formation and E2 cleavage by determining butane-1,3-diamine content.

[2] = substrate: CC(=O)N[C@@H](C)CCNCCCCN; settings: other: Supplementary Table 1, pH 9.0, 100 mM Glycine-NaOH, 25°C, Put formation
Description: as §1, §2, §3, §4, §5, §6, §7, §8, §9

[3] = substrate: CC(=O)NC(C)CCNCCCCN; settings: other: Supplementary Table 1, pH 9.0, 100 mM Glycine-NaOH, 25°C, Put formation
Description: as §1, §2, §3, §4, §5, §6, §7, §8, §9

[4] = substrate: CC(N)CCNCCCCN; settings: other: Supplementary Table 2, pH 9.0, 25°C
Description: as §1, §2, §3, §4, §5, §6, §7, §8, §9

[5] = substrate: CC(=O)NCCCCNCCCN; settings: other: substrate alone, no aldehyde, pH 9.0, 25°C
Description: as §1, §2, §3, §4, §5, §6, §7, §8, §9

[6] = substrate: CC(=O)N[C@H](C)CCNCCCCN; settings: other: Supplementary Table 1, pH 9.0, 100 mM Glycine-NaOH, 25°C, Put formation
Description: as §1, §2, §3, §4, §5, §6, §7, §8, §9

[7] = substrate: CC(=O)NCCCNCCCCN; settings: other: substrate alone, no aldehyde, pH 9.0, 25°C
Description: as §1, §2, §3, §4, §5, §6, §7, §8, §9

B1: Fms1 (Saccharomyces cerevisiae S288C) (protein)
chain: MNTVSPAKKKVIIIGAGIAGLKAASTLHQNGIQDCLVLEARDRVGGRLQTVTGYQGRKYDIGASWHHDTLTNPLFLEEAQLSLNDGRTRFVFDDDNFIYIDEERGRVDHDKELLLEIVDNEMSKFAELEFHQHLGVSDCSFFQLVMKYLLQRRQFLTNDQIRYLPQLCRYLELWHGLDWKLLSAKDTYFGHQGRNAFALNYDSVVQRIAQSFPQNWLKLSCEVKSITREPSKNVTVNCEDGTVYNADYVIITVPQSVLNLSVQPEKNLRGRIEFQPPLKPVIQDAFDKIHFGALGKVIFEFEECCWSNESSKIVTLANSTNEFVEIVRNAENLDELDSMLEREDSQKHTSVTCWSQPLFFVNLSKSTGVASFMMLMQAPLTNHIESIREDKERLFSFFQPVLNKIMKCLDSEDVIDGMRPIENIANANKPVLRNIIVSNWTRDPYSRGAYSACFPGDDPVDMVVAMSNGQDSRIRFAGEHTIMDGAGCAYGAWESGRREATRISDLLK
In the case of B1, the Km [1] is reported as 534 ± 36 µM and 643 ± 52 µM, the Km [2] is reported as 109 ± 18 µM and the Km [3] is reported as 140 ± 23 µM. For the same protein, the Km ([4]; Put formation) was 502 µM and 555 µM, the kcat ([4]; Put formation) was 0.014 ± 0 s⁻¹ and 0.011 ± 0 s⁻¹ and the kcat/Km ([4]; Put formation) was 28 M⁻¹ s⁻¹ and 20 M⁻¹ s⁻¹. The Km ([4]; butane-1,3-diamine formation) was 467 µM and 606 µM, the kcat ([4]; butane-1,3-diamine formation) was 0.006 ± 0 s⁻¹ and 0.013 ± 0 s⁻¹ and the kcat/Km ([4]; butane-1,3-diamine formation) was 13 M⁻¹ s⁻¹ and 22 M⁻¹ s⁻¹. For the same protein, the Km [5] was 122 ± 18 µM, the kcat [5] was 1.4 ± 0.1 s⁻¹ and the kcat/Km [5] was “(12 ± 1.8) × 10^3 M^−1s^−1”. It also gave a Km [6] of 155 ± 29 µM, a Km [7] of 42 ± 8 µM and a kcat [7] of 65 ± 2 s⁻¹. For the same protein, the kcat/Km [7] was “(1600 ± 300) × 10^3 M^−1s^−1”.
